Measured values published in patent publication US20170333524A1.
pKd: −log10 of the molar value.

Key:
[1] = target: MART-1 (ELA peptide) peptide on HLA-A*02:01 (human); test: SPR, Biacore 3000; TCR amine-coupled to a CM5 chip, refolded ELA/HLA-A2 injected, 25 °C (Table 3, ELA); soluble, other
[2] = target: MART-1 (ELA peptide) peptide on HLA-A*02:01 (human); test: SPR, Biacore 3000; TCR on the chip, refolded pMHC injected. The row prints the target as 'AAG (SEQ ID NO 5', but its ratio 395.8 is taken against the WT ELA value 9.5, and Table 3 gives 0.024 under ELA); soluble, other
[3] = target: MART-1 (ELA peptide) peptide on HLA-A*02:01 (human); test: SPR, Biacore 3000; TCR amine-coupled to a CM5 chip, refolded pMHC injected, 25 °C, 1:1 Langmuir fit; soluble, other

pKd [1] | pKd [2] | pKd [3] | Substance
7.62 | 7.62 |  | DMF5 TCR αD26Y/βL98W
 |  | 5.54 | DMF5 TCR βL98W
